# Source: paper PMC9242859
# Molecular target: C-terminally TAMRA-conjugated and N-terminally myristoylated preS1 peptide, amino acids 2-48 of the preS1 region (preS1 probe)
# Assay: preS1 binding assay (fluorescent preS1 probe attachment to cells, fluorescence imaging)
# Settings: Huh7 cells transiently expressing wild-type or mutant NTCP; parent: est. 1.0; read off a plot
row,Substance,ratio to parent (fold vs control)
1,wild-type NTCP transiently expressed in Huh7 cells (from UniProt Q14973) R143A; D147A,1.1
2,wild-type NTCP transiently expressed in Huh7 cells (from UniProt Q14973) R84A; N87A,0.46
